{
  "source": "patent US20100159475",
  "key": {"[1]": {"system": "T1, Fluoresceinyl-DLDVPIPGRFDRRVpSVAAE (phosphorylated, fluorescein-tagged RII peptide)", "T1 sequence": "DLDVPIPGRFDRRVSVAAE"}},
  "data": [
    {"substance": "Recombinant calcineurin", "values": [
      {"measurement": "dephosphorylation by 0.2 ng calcineurin (fluorimetric calcineurin assay)", "setting": "autoinhibitory peptide", "result": "Dephosphorylation by 0.2 ng calcineurin was significantly reduced (ANOVA) by each of these conditions"},
      {"measurement": "amount of dephosphorylated peptide in the unbound fraction after titanium oxide (mass spectrometry)", "setting": "[1]", "result": "30-fold increase in the amount of dephosphorylated peptide in the unbound fraction with the addition of recombinant calcineurin"},
      {"measurement": "dephosphorylation of the peptide (fluorimetric calcineurin assay)", "setting": "[1]", "result": "Calcineurin in normal buffer resulted in dephosphorylation of the peptide in a dose-dependent manner"},
      {"measurement": "relative amount of dephosphorylated to phosphorylated peptide (mass spectrometry)", "setting": "[1]", "result": "recombinant calcineurin stimulated a dose-responsive increase in the relative amount of dephosphorylated to phosphorylated peptide"}
    ]}
  ]
}
